{
  "source": "patent US20240156960A1",
  "about": "(priority 2020, published 2024)",
  "origin": "cited, not measured here",
  "key": {"[1]": {"target": "NL63 S (Human coronavirus NL63, UniProt Q6Q1S2)", "sequence (Q6Q1S2 19-1356)": "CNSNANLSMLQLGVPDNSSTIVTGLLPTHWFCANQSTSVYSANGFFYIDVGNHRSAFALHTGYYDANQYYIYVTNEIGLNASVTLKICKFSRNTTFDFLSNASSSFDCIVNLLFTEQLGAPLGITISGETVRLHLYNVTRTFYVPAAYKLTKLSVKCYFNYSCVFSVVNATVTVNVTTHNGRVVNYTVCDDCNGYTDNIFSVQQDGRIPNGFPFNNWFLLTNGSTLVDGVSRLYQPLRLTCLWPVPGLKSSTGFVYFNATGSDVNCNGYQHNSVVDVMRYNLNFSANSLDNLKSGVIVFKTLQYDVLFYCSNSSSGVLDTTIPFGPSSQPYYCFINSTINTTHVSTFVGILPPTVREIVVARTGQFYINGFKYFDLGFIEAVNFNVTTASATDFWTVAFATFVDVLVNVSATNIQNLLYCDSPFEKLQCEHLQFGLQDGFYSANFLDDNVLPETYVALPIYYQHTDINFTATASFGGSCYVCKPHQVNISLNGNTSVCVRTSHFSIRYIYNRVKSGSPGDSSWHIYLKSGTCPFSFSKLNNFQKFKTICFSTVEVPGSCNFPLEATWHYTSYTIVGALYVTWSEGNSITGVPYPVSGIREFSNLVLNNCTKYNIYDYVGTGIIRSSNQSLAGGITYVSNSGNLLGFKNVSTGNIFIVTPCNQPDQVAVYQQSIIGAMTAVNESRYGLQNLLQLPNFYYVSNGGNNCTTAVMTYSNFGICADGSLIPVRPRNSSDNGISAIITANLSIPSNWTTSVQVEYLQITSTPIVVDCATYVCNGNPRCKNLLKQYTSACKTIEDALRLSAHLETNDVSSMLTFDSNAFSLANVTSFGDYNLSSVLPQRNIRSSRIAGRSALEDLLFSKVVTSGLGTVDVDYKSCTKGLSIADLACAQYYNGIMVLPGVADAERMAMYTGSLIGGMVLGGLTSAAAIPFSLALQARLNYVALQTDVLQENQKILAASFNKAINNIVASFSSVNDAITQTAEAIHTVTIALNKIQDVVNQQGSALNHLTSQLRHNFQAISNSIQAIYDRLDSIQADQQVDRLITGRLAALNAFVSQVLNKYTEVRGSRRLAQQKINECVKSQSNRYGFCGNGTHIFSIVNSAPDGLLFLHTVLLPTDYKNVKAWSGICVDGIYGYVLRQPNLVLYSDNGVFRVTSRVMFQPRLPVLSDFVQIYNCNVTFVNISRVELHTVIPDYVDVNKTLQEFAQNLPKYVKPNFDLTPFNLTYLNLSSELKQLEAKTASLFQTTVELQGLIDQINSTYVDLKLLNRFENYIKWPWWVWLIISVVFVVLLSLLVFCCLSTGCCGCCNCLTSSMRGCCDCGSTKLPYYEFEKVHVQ", "conditions": "Protein + Epitope S, Unk"}, "[2]": {"target": "SARS-CoV1 S (Severe acute respiratory syndrome coronavirus, UniProt P59594)"}, "[3]": {"target": "OC43 S (Human coronavirus OC43, UniProt P36334)", "sequence (P36334 14-1353)": "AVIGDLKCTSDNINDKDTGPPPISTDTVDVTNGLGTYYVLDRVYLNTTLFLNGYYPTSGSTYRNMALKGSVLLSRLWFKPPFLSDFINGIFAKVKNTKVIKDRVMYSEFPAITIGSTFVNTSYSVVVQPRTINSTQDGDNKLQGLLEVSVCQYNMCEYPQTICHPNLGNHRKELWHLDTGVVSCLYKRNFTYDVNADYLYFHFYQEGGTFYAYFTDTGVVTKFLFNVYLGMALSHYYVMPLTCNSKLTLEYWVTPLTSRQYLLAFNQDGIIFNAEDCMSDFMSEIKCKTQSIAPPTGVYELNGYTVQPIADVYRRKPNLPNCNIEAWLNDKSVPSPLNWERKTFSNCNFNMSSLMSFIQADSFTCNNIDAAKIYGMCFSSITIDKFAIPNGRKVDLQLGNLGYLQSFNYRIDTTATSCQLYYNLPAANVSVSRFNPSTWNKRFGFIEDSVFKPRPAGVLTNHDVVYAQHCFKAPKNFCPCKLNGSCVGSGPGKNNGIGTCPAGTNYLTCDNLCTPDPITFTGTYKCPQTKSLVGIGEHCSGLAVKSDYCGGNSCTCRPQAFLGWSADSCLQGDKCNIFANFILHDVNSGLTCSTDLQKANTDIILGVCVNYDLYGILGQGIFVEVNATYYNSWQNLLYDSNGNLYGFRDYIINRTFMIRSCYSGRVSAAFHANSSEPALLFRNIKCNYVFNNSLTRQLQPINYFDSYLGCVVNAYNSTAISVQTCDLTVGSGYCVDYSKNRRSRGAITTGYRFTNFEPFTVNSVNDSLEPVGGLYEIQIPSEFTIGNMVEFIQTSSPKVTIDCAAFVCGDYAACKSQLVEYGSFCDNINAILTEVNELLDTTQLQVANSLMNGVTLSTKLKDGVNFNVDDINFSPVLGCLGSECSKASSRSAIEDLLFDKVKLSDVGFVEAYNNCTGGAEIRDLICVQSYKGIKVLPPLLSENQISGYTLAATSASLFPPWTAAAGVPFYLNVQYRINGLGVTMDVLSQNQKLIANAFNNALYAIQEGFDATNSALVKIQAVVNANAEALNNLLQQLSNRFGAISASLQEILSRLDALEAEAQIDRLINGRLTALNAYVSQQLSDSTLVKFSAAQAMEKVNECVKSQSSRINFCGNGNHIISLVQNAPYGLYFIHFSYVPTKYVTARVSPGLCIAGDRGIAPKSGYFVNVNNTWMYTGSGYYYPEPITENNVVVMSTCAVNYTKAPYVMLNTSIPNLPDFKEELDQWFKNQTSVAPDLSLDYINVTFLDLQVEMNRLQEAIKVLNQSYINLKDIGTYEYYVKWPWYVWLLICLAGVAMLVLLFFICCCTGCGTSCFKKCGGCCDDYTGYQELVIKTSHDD", "conditions": "Protein + Epitope S, Unk"}, "[4]": {"target": "SARS-CoV2 S (Severe acute respiratory syndrome coronavirus 2, UniProt P0DTC2)", "conditions": "Protein + Epitope S, Unk"}, "[5]": {"test_system": "SARS-CoV2, SARS-CoV1, NL63, 229E, HKU1, OC43"}},
  "data": [
    {"molecule": "mAb-88 (antibody, listed as Homo sapiens, V domains shown) VH: QVQLVESGAEVKKPGSSVKISCKISGDTFSTNAISWLRQAPGREPEWMGGIVPLVGPASYAQRPQGRLTITADEFTNTAYLELNSLRSEDTATYYCARDSDPYTATRRHNHYWYAMDVWGQGTTVTVSS VL: DIRLTQTPLSLPVTLGQPASISCRSSQIAMHSDGNTYLSWFHQRPGQPPRRLIYKISNRDSGVPDRFSGSGSGTDFTLKISRVEAEDIGTFYCMQGTDWPRTFGQGTKVDIK", "values": [
      {"measurement": "Doesn't Bind to", "setting": "[1]", "value": "NL63,"},
      {"measurement": "Doesn't Bind to", "setting": "[2]", "value": "CoV1"},
      {"measurement": "Doesn't Bind to", "setting": "[3]", "value": "OC43,"},
      {"measurement": "Binds to", "setting": "[4]", "value": "SARS-CoV2"}
    ]},
    {"molecule": "mAb-94 (antibody, listed as Homo sapiens, V domains shown) VH: QVQLVQSGAEVKKPGSSVKVSCKASGGMFTDYAISWVRQAPGQRLEWMGGIMPGLGSPAYAQIFRDRATISADVSTSTAYLELTSLKPEDTAVYYCARDPSILNTGNHHWYDLDIWGQGTTVTVSS VL: DIQLTQSPLSLPVGLGQSASISCRSSQRVVHTDGNTYLNWYHQRPGQSPRRLIYKVSNRDSGVPDRFSGSGSGTDFTLRISRVEAEDVGVYYCMQSTDWPRTFGQGTKLEIK", "values": [
      {"measurement": "Doesn't Bind to", "setting": "[1]", "value": "NL63,"},
      {"measurement": "Doesn't Bind to", "setting": "[2]", "value": "CoV1"},
      {"measurement": "Doesn't Bind to", "setting": "[3]", "value": "OC43,"},
      {"measurement": "Binds to", "setting": "[4]", "value": "SARS-CoV2"}
    ]},
    {"molecule": "mBG21 (antibody, listed as Mus musculus, V domains shown) VH: QIQLVQSGPELKKPGETVKISCKASGYTFTDYSMHWVKQAPGKGSKWMGWINTETGEPTYADDFKGRFAFSLETSASTAYLQINNLKNEDTATYFCALRRWGQGTLVTVSS VL: IVMTQTPKFLLVSAGDRVTITCKASQSVSNDVAWFQQKPGQSPKKLLIYFASNRYTGVPDRFTGSGYGTDFTFTITTVQAEDLAVYFCQQDYSSPWTFGGGTKLEIK", "values": [
      {"measurement": "Binds to", "setting": "[5]", "value": "NL63"}
    ]},
    {"molecule": "mBG22 (antibody, listed as Mus musculus, V domains shown) VH: QIQLVQSGPELKKPGETVKISCKASGYTFTDYSMHWVKQAPGKGSKWMGWINTETGEPTYADDFKGRFAFSLETSASTAYLQINNLKNEDTATYFCALRRWGQGTLVTVSA VL: IVMTQTPKFLLVSAGDRVTITCKASQSVSNDVAWFQQKPGQSPKLLIYFASNRYTGVPDRFTGSGYGTDFTFTITTVQAEDLAVYFCQQDYSSPWTFGGGTKLEIK", "values": [
      {"measurement": "Binds to", "setting": "[5]", "value": "NL63"}
    ]},
    {"molecule": "mBG57 (antibody, listed as Mus musculus, V domains shown) VH: QIQLVQSGPELKKPGETVKISCKASGYTFTDYSMHWVKQAPGKGSKWMGWINTETGEPTYADDFKGRFAFSLETSASTAYLQINNLKNEDTATYFCALRRWGQGTLVTVSA VL: DIVMTQAAPSEPVTPGESVSISCGSSKSLLHSNDNTYLYWFLQRPGQSPQLLIYRMSNLASGVPDRFTGSGSGTAFTLRISRVEAEDVGVYYCMQHLENPLGVRWRHQAGNQT", "values": [
      {"measurement": "Binds to", "setting": "[5]", "value": "NL63"}
    ]},
    {"molecule": "mAb-87 (antibody, listed as Homo sapiens, V domains shown) VH: QVQLQESGPGLVKPSETLSLTCTVSGGSMNHYYWSWIRQPPGKGLEGIGYTYYSGSTNYNPSLKSRVTISVDASKNQFSLRLSSVTAADTAVYYCARGSQIDLRGGLGATFFDYWGQGTLVTVSS VL: QSVLTQPASVSGSPGQSITISCTGTSSDVGAYNYVSWYQQHPGKAPKLTVYDVRNRPSGVSNRFSGSKSGNTASLTISGLQAEDEAHYYCSSYTSTNTVFGGGTKLTVL", "values": [
      {"measurement": "Doesn't Bind to", "setting": "[1]", "value": "NL63,"},
      {"measurement": "Doesn't Bind to", "setting": "[2]", "value": "CoV1"},
      {"measurement": "Doesn't Bind to", "setting": "[3]", "value": "OC43,"},
      {"measurement": "Binds to", "setting": "[4]", "value": "SARS-CoV2"}
    ]},
    {"molecule": "mAb-85 (antibody, listed as Homo sapiens, V domains shown) VH: QVQLQESGPGLVKPSGTLSLTCAVSGGSITSRDWWSWVRQPPGKGLEWIGEVYHSGSTSYNPSLKSRVTISVDKSKNEFSLKLSSVTAADTAVYYCARAGNIVVMPAAQYYFDYWGQGTLVTVSS VL: EIVLTQSPSSLSASVGDRVTITCRASQDISNYLAWYQQKPGKAPKLLIYAASTLQSGVPLRFSGSGSGTDFTLTISSLQPEDFATYYCLQLHNYSSFGGGTKVDIK", "values": [
      {"measurement": "Doesn't Bind to", "setting": "[1]", "value": "NL63,"},
      {"measurement": "Doesn't Bind to", "setting": "[2]", "value": "CoV1"},
      {"measurement": "Doesn't Bind to", "setting": "[3]", "value": "OC43,"},
      {"measurement": "Binds to", "setting": "[4]", "value": "SARS-CoV2"}
    ]}
  ]
}
